{
  "source": "the DeepSol protein solubility set",
  "data": [
    {"assay": "soluble on expression in E. coli; label from the status in PepcDB or PDB records", "values": [
      {"sequence": "MGSKYSKATNSINDALSSSYLVPFESYRVPLVDLEEATNNFDHKFLIGHGVFGKVYKGVLRDGAKVALKRRTPESSQGIEEFETEIETLSFCRHPHLVSLIGFCDERNEMILIYKYMENGNLKRHLYGSDLPTMSMSWEQRLEICIGAARGLHYLHTRAIIHRDVKSINILLDENFVPKITDFGISKKGTELGQTHLSTVVKGTLGYIDPEYFIKGRLTEKSDVYSFGVVLFEVLCARSAIVQSLPREMVNLAEWAVESHNNGQLEQIVDPNLADKIRPESLRKFGDTAVKCLALSSEDRPSMGDVLWKLEYALRLQESVIHHHHHH", "soluble on expression in E. coli": "soluble"},
      {"sequence": "MGSSHHHHHHDYDIPTTENLYFQGGGGGGMRAAVVYKTDGHVKRIEEALKRLEVEVELFNQPSEELENFDFIVSVGGDGTILRILQKLKRCPPIFGINTGRVGLLTHASPENFEVELKKAVEKFEVERFPRVSCSAMPDVLALNEIAVLSRKPAKMIDVALRVDGVEVDRIRCDGFIVATQIGSTGYAFSAGGPVVEPYLECFILIPIAPFRFGWKPYVVSMERKIEVIAEKAIVVADGQKSVDFDGEITIEKSEFPAVFFKNEKRFRNLFGKVRSIG", "soluble on expression in E. coli": "soluble"},
      {"sequence": "MGSSHHHHHHGSPIHDKSPRPQEFAAVDLGSNSFHMVIARVVDGAMQIIGRLKQRVHLADGLGPDNMLSEEAMTRGLNCLSLFAERLQGFSPASVCIVGTHTLRQALNATDFLKRAEKVIPYPIEIISGNEEARLIFMGVEHTQPEKGRKLVIDIGGGSTELVIGENFEPILVESRRMGCVSFAQLYFPGGVINKENFQRARMAAAQKLETLTWQFRIQGWNVAMGASGTIKAAHEVLMEMGEKDGIITPERLEKLVKEVLRHRNFASLSLPGLSEERKTVFVPGLAILCGVFDALAIRELRLSDGALREGVLYEMEGRFRHQDVRSRTASSLANQYHIDSEQARRVLDTTMQMYEQWREQQPKLAHPQLEALLRWAAMLHEVGLNINHSGLHRHSAYILQNSDLPGFNQEQQLMMATLVRYHRKAIKLDDLPRFTLFKKKQFLPLIQLLRLGVLLNNQRQATTTPPTLTLITDDSHWTLRFPHDWFSQNALVLLDLEKEQEYWEGVAGWRLKIEEESTPEIAA", "soluble on expression in E. coli": "soluble"},
      {"sequence": "MGSSHHHHHHMTYEYILVRYGEMTTKGKNRSKFVSTLKDNVKFKLKKFPNIKIDATHDRMYIQLNGEDHEAVSERLKDVFGIHKFNLAMKVPSELEDIKKGALAAFLQVKGDVKTFKITVHRSYKHFPMRTMELLPEIGGHILENTEDITVDVHNPDVNVRVEIRSGYSYIMCDERMGAGGLPVGVGGKVMVLLSGGIDSPVAAYLTMKRGVSVEAVHFHSPPFTSERAKQKVIDLAQELTKYCKRVTLHLVPFTEVQKTINKEIPSSYSMTVMRRMMMRITERIAEERNALAITTGESLGQVASQTLDSMHTINEVTNYPVIRPLITMDKLEIIKIAEEIGTYDISIRPYEDCCTVFTPASPATKPKREKANRFEAKYDFTPLIDEAVANKETMVLQTVEVVAEEEKFEELF", "soluble on expression in E. coli": "soluble"},
      {"sequence": "MGSSHHHHHHSSGLVPAGSHMSDFDNITTADDVFKLAAQRTGLSEIDSDSWREGLALIVDEVNTSPVFTPFGRQRVLDDATNALGRRLQVHAYIQDHPEVLDAPVERPLIVLGMPRTGTTVISYLLDQDPARRSLLHWQCVHPIPPASTETLRTDPRCLALLDEQRKILDAVTRAKMPLPHWEDADGPTEDMFIHNQDFKGLSWDSFLPTDRYARWLFDEADMSSTYEYQKRYLQVLQSTAPGSWSLKMPSHSVHIEALLKVFPDARLIWAHRDPYKATGSLCNLWRLPQSLVMNTELLDQTEMGRLAMWQMRYHVDRPLRARERIGDERFFHMYYHEMMRDPMDVMRRIYEWADEPLTAETEARMRNWLAHHPQDRFALNAYRLDEYGLTVEALQPIFAEYLDTFDIELEGRP", "soluble on expression in E. coli": "soluble"},
      {"sequence": "MGSSHHHHHHSSGLVPRGSHMAADNRVQMRTTINNESPLLLSPLYGNDNGNGLWWGNTLKGAWEAIPEDVKPYAAIELHPAKVCKPTSCIPRDTKELREWYVKMLEEAQSLNIPVFLVIMSAGERNTVPPEWLDEQFQKYSVLKGVLNIANYWIYNNQLAPHSAKYLEVCAKYGAHFIWHDHEKWFWETIMNDPTFFEASQKYHKNLVLATKNTPIRDDAGTDSIVSGFWLSGLCDNWGSSTDTWKWWEKHYTNTFETGRARDMRSYASEPESMIAMEMMNVYTGGGTVYNFECAAYTFMTNDVPTPAFTKGIIPFFRHAIQNPAPSKEEVVNRTKAVFWNGEGRISSLNGFYQGLYSNDETMPLYNNGRYHILPVIHEKIDKEKISSIFPNAKILTKNSEELSSKVNYLNSLYPKLYEGDGYAQRVGNSWYIYNSNANINKNQQVMLPMYTNNTKSLSLDLTPHTYAVVKENPNNLHILLNNYRTDKTAMWALSGNFDASKSWKKEELELANWISKNYSINPVDNDFRTTTLTLKGHTGHKPQINISGDKNHYTYTENWDENTHVYTITVNHNGMVEMKI", "soluble on expression in E. coli": "soluble"},
      {"sequence": "MGSSHHHHHHSSGLVPRGSHMAEFRFIKTSLDGAIIIEPEVYTDERGYFMETFNEAIFQENGLEVRFVQDNESMSVRGVLRGLHFQREKPQGKLVRVIRGEIFDVAVDLRKNSDTYGEWTGVRLSDENRREFFIPEGFAHGFLALSDECIVNYKCTELYHPEYDSGIPWDDPDIGIDWPLEMVDDLIISEKDRNWKPLRENPVYL", "soluble on expression in E. coli": "soluble"},
      {"sequence": "MGSSHHHHHHSSGLVPRGSHMAMVELSGTVTFWDTSNEAEKATYQALAEGFEKEHPKVDVKYVNVPFGEANAKFKNAAGGNSGAPDVMRTEVAWVADFASIGYLAPLDGTPALDDGSDHLPQAAASTRYEGKTYAVPQVIDTLALFYNKELLTKAGVEVPGSVAELKTAAAEITEKTGATGLYLRGDDPYWFLPYLYGEGGDLVDEKNKTVTVDDEAGVRAYRVIKDLVDSKAAITDASDGWNNMQNAFKSGKVAMMVNGPWAIEDVKAGARFKDAGNLGVAPVPAGSAGQGSPQGGWNLSVYAGSKNLDASYAFVKYMSSAKVQQQTTEKLSLLPTRTSVYEVPSVADNEMVKFFKPAVDKAVERPWIAEGNALFEPIRLQMANVLSGETSPDEAAANTGDAYRKLLKDYK", "soluble on expression in E. coli": "soluble"},
      {"sequence": "MGSSHHHHHHSSGLVPRGSHMAPIVETAKETNSDSSLYLDLMIKVLAGTVYEDPAHRENFSHRDSTYREEVRNEGRDWPANAHTMIGIKRLENIRQCVEDVIGNNVPGDLVETGVWRGGACILMRGILRAHDVRDRTVWVADSFQGIPDVGEDGYAGDRKMALHRRNSVLAVSEEEVRRNFRNYDLLDEQVRFLPGWFKDTLPTAPIDTLAVLRMDGDLYESTWDTLTNLYPKVSVGGYVIVDDYMMCPPCKDAVDEYRAKFDIADELITIDRDGVYWQRTR", "soluble on expression in E. coli": "soluble"},
      {"sequence": "MGSSHHHHHHSSGLVPRGSHMASKRCRQCSGDSASSSTSSLSPSELPPSKKAAGGQRVTAEVEVAPITTDATSATVTAAGGAKKKATTGSPARRTSSAAKITNGDAGELIRTAEALAALNAKKSEKEIWSDVVPFVRRTTDSDFDPSRMYKFITWNVAGLRGLLKKNASALRAFMEAEKPDVLCLQETKLNVDEADANATLGVVDGYSFVDHPCAFKRGYSGTRTYMKNSTTVKGLHARCTRGFALPSEPQADAAAGSRVLVEGAGDEEGRVLTTFLSPDPDSASSSSRIALVNTYVANSGMGLTRLPYRVQSFDPSMREYLHRLDTWATENAAVPSAAAMGSGSSPHGFIWAGDLNVAERDYDRYYAGTFKSMQECSGFAPEERMSFRETMQRTNSVDIFRQLYPQAGPVYSFWSQRINGRPRNLGWRLDYFVVSSRLASYVVDCFPMPTVMGSDHCPFQMWMRHP", "soluble on expression in E. coli": "soluble"},
      {"sequence": "MGSSHHHHHHSSGLVPRGSHMASMTEQRTKYADSILTTKSPYEATETIRIRLSQVKLLNKDFYLLFKELANLKRNYAQQLRKIIAENEDITKILNAQMIESNVLTPQEMSAFRFNSLGELRNVWDTVIEELKSDLKSSTEYYNTLDQQVVRELKESVENNTSWRESKDLHSKLSKNAASIEHYSKNNENSSHLEEARRQWDQQSPYLFELFETIDYNRLDTLKNCMLRFQTSFSDYLLNTTKECETVMTKFLAFEPQSEIDRFAKDASQYNFQLSSSSKEVVPNNAS", "soluble on expression in E. coli": "soluble"},
      {"sequence": "MGSSHHHHHHSSGLVPRGSHMAVSGPDDYLQHSIVPTMHYQDSLPRLPIPKLEDTMKRYLNAQKPLLDDSQFRRTEALCKNFETGVGKELHAHLLAQDKQNKHTSYISGPWFDMYLTARDSIVLNFNPFMAFNPDPKSEYNDQLTRATNLTVSAVRFLKTLQAGLLEPEVFHLNPSKSDTDAFKRLIRFVPPSLSWYGAYLVNAYPLDMSQYFRLFNSTRIPRPNRDELFTDTKARHLLVLRKGHFYVFDVLDQDGNIVNPLEIQAHLKYILSDSSPVPEFPVAYLTSENRDVWAELRQKLIFDGNEETLKKVDSAVFCLCLDDFPMKDLIHLSHTMLHGDGTNRWFDKSFNLIVAEDGTAAVHFEHSWGDGVAVLRFFNEVFRDSTQTPAITPQSQPAATNSSASVETLSFNLSGALKAGITAAKEKFDTTVKTLSIDSIQFQRGGKEFLKKKQLSPDAVAQLAFQMAFLRQYGQTVATYESCSTAAFKHGRTETIRPASIFTKRCSEAFVRDPSKHSVGELQHMMAECSKYHGQLTKEAAMGQGFDRHLYALRYLATARGLNLPELYLDPAYQQMNHNILSTSTLNSPAVSLGGFAPVVPDGFGIAYAVHDDWIGCNVSSYSGRNAREFLHCVQKCLEDIFDALEGKAIKT", "soluble on expression in E. coli": "soluble"},
      {"sequence": "MGSSHHHHHHSSGLVPRGSHMDRKTEFIECTNAFNEKPKKGIPMLIEKGFIASDSDKDIAEFLFNNNNRMNKKTIGLLLCHPDKVSLLNEYIRLFDFSGLRVDEAIRILLTKFRLPGESQQIERIIEAFSSAYCENQDYDPSKISDNAEDDISTVQPDADSVFILSYSIIMLNTDLHNPQVKEHMSFEDYSGNLKGCCNHKDFPFWYLDRVYCSIRDKEIVMPEEHHGNE", "soluble on expression in E. coli": "soluble"},
      {"sequence": "MGSSHHHHHHSSGLVPRGSHMEPAATTYGTSTSVGVHNAYEKEKYRYFADALDSGAALLELDLWSNALGRSWRVSHSNPLGNNSNCEGAANASELRTKSRDQDFAGCLSDMRAWHDAHPGHRPILLKIEMKDGFNAKGGRGPAEFDALIRQKLGDAVYGPGDLTGGHATADEAVRAGGWPSRADLAGKFLFELIPGTVEEKNPFDKLWTDVEYAGHLKDLAAQGKLAQSTAFPAVHGAAPGDPRERYADPALRPWFVVFDGDAATYLNGSIDTSWYDTRHYLLIMTDAHNVPPVIDGTHPTEAEALARVRQLAAAHASFATADWYPLPSVLKTVVPRGA", "soluble on expression in E. coli": "soluble"},
      {"sequence": "MGSSHHHHHHSSGLVPRGSHMGTASNGSTQQLPQTIIIGVRKGGTRALLEMLSLHPDVAAAENEVHFFDWEEHYSQGLGWYLTQMPFSSPHQLTVEKTPAYFTSPKVPERIHSMNPTIRLLLILRDPSERVLSDYTQVLYNHLQKHKPYPPIEDLLMRDGRLNLDYKALNRSLYHAHMLNWLRFFPLGHIHIVDGDRLIRDPFPEIQKVERFLKLSPQINASNFYFNKTKGFYCLRDSGKDRCLHESKGRAHPQVDPKLLDKLHEYFHEPNKKFFKLVGRTFDWH", "soluble on expression in E. coli": "soluble"},
      {"sequence": "MGSSHHHHHHSSGLVPRGSHMLEDPMGTLIRATTLSRLSFIDVVNDNGFYQFEKPKEGRKYVATLDCSEGRGQDYHALQIIDITEFPYKQVAVYHSNTTSHFILPDIVFKYLMMYNECPVYIELNSTGVSIAKSLAMDLEYDNIICDSFIDLGMKQSKRSKAMGCSALKDLIEKDKLIINHKGTIQELRTFSEKGVSWAAEEGFHDDLVMSLVIFGWLTTQEKFAEYAGKDE", "soluble on expression in E. coli": "soluble"}
    ]}
  ]
}
